Results: the DeepSol protein solubility set

Assay: soluble on expression in E. coli; label from the status in PepcDB or PDB records

Sequence	soluble on expression in E. coli
MSLNVFDKSGQSSGYKLSSTIGKNNTDVNKNDNNSAIYSESAVIVFGYPEYLSNQVITHFSHFGNILEDFEILRSSTGINNNTFRLHANLNALQEGSMSTKLPIFTGEGWVKITYDSPTSALRALKENGTVFTGHLIGCIPYSKSAVEQLALISVDKSDDIGSIDLGQINKSVNEDSRNKGSNGKVYPSLGSVDHIEPINGRQKEANMKSFGTPIINNNQQYLDHSIMAHPRHKLDIQDGKSLFVHNSSHHKTQFLDNIEKKIKEKEANKNESGSWSGRLTNWVFGWDNEGHHHHHH	soluble
MSLNVQGNLFRPLTLPNGLSLENRFVLSPMVTNSSTSEGFVTDDDIAYAVRRAKSAPLQITGAAYITEYGQLFEYGFSVSKDEDIPGLTKLAKAMKSKGAKAVLQLTHAGRFSSHTLARHGYVYGPSPMQLQSPYPHQVKELTHKDILRIIDEYVQATRRAIQAGFDGVEISSAQRLLIQTFFSTFSNQRKDEYGPQTLTNRCRLGLEVFKAVQKVIREEAESDFILGFRATPEETRGSQIGYSIEEFMEFLEKILAIAQVDYLAIASWGHDVFRNTIRSEGVYKGQLVNQVIFEHFGDRVPIMATGGINSASKVFEALQHAHMIGASTPLVVDPEFLQKIKAKCSDQINLRIKVSDLEGLAIPKASFKDIVPLMDYGESEGHHHHHH	soluble
MSLNYEMFAKLYDRLMADAPYDRWAKLVEEEIRKAIFSDVNLLDIGCGTGRLLKILSERGYACTGVDQSANMLVIAREALAQKGVQVPLFQQDMTEFYTGETYQVITIFCDSLNYVITEEGVVQTFQRVFDHLDQQGVFMFDVHSPTKLRNHFIGKTFADADEEISYIWQSFAGEAEQSVEHELTFFVRNETGSYDRYEELHIQRGYPIERYVDWLKEAGFSRIDITADFTNEAPTENSERIFFKAYKKEGHHHHHH	soluble
MSLPAGPSMACQKGTSTWAKAERPRSAKGRSFRMARILLPFSATMGGSRLQWEGMAASHALKPILELLPEELPGEGYRRAQIAHWLYAKGARDFSEMTDLPKALREALAREWRLSEFSLVQAFPSQDGSVKYLFTLLDGKKTEAVYMPYENRKTVCLSTMVGCPAGCTFCATGALGFGRNLTAAEILDQLLTIAYHQGLSPREIRNVVLMGMGEPLLNLRNVLKAVRIMLHKKALALSPRRVTLSTVGIPKGIYRLAEEDLGVRLALSLHAPDDETRRKIIPTAHRYPIAEIMEAVRHYHAKTKRRVTFEYTLLKGVNDHLWQARLLAKLLKGLSAHVNLIPFNPWEGAPVVGTPRAGVLAFAEELKRLGVPTSIRWSRGQDVGAACGQLALKVPRPLTLTPLPGGAGR	soluble
MSLPANKLVFVGGMGAGKTTAVRAISDVEPVSTEMPLSQDAYGDKTYTTVALDYSSIELEDGELLHVYGVPGQKYLDFMWPLVCDGALGVIVLTSARDTQMRDTTLELLREFSRITPEASLAVGVTMTDEVQEFLLPPFREALVAEGFRIPVMRVDARSATQITFLVKTLLSYRYTSAPVLEHHHHHH	soluble
MSLPINDQRFNGEDWINNPFFNLLSQHYLLANEHMNSLLENMEYGDENLAKRVRFFTRQYLDALSPANFIHTNPQLMAETLQSHGKNLLRGLHNLLSDVEAGSSRLIIKMTDTEAFKIGENLATTPGKVIFRNSMMELIQYCPRTTKAKSIPLLIVPPWINKYYILDLSPHNSLIRWLVEQGITVFIISWVNPDEEGHHHHHH	not soluble
MSLPTTSSPLTNDQEFAKPVRNGKIFENPKSFTNWGGRPGLTNIFKLVLRETSHENLPSDKKVLDSTLPVHNITADDFHSESGLFATWLGHATVLVDLEGVKFVTDPVWADRASFTSFAGPKRYRPPPMKLEDLPDLDFAVVSHDHYDHLDADAVKRITNLNPQIKWFVPLGLKKWMKNQGIGADGSNTVTELNWGESSEFVKNGKTITIWCLPAQHSGQRGLSDHNHRLWSGWAVIGENRRFYFPGDTGFCDVEFKKIGEKLGPFDLAAIPIGAYEPRWFMKSHHINPDEAVEVHKLVRARNSIGIHWGTYPMGTTEYYLEPRDKLKELMDAREDLKDTSFVTVDMGEIWEASDR	not soluble
MSLQCDDCKTKLMPLVAHEVDHIDNRRDVAGDLDDSPDNLRAVNRDCHRRITMRQIAEAGAVGTMAPVWMPITQKPLTVVVGPPSAGKSTWVKAAAKASDLVIDLDILAPTVIGKPMWIADSRERSLVIRERNSLVAEYMRGKTAHPHCFLIDTAGSFKRRKFWLDRGADVVLLDTDKDICRARIRQCSARPESTRAGRLAAVDRWEEGHHHHHH	not soluble
MSLQDIYGTLANLNTKLKQKLSHPYLAKHISAPKIDEDKLLLFHALFEEADIKNNDRENYIVTAMLVQSALDTHDEVTTARVIKRDENKNRQLTVLAGDYFSGLYYSLLSEMKDIYMIRTLATAIKEINEHKIRLYDRSFKDENDFFESVGIVESALFHRVAEHFNLPRWKKLSSDFFVFKRLMNGNDAFLDVIGSFIQLGKTKEEILEDCFKKAKNSIESLLPLNSPIQNILINRLKTISQDQTYHQKVEEGEGHHHHHH	soluble
MSLQEVITLKVIGPWSGAELDAFMEVLKAFEKQHPNIKIEYKTYRAEDLSTILPLQFESHDTPADVIFMWGWFIAEMGKKGHLMELNNIINPEEYVPGILDSVTVDGKIYGAPFTAAAKPGFWYRKSFFEKHNLKPPKTWDDFVALLEEIKKIPGIKAPIVSGDSVGWPLSDVTEHFILTFGGKDLQLKLIKGEVKWEDPQVRKIFEEKLVPLLKAGYFSDPIEWTSAVDLWWKGEYALYFMGTWITGMVDDPNDLGLIPLPGVKAMVIAPDYLMVPKYTSHPKEALELAKFLATEGQRIHVGTKSGKLATWKKVSIDDYWAPMRDVAKIVANVESAPDLDDSVGGEWQKVFWDQLKLLWVQPDRLDEVLKTLDEKFPKEGHHHHHH	soluble
MSLQEVKKTYFVSKPGTLISMMTEEEANQVTHLTLTGKINAVDFRHLRDEFKNLQVLDIANASISMYSGKEGTYPDKFYIYMPNFVPAYAFCKMENGTAKGKSTLKKIILSEKIKNIEDAAFMGCENLNICQIKKKTPPNLLPEALADSITAIFVPLGASDEYRLKNRWDNFAFIEGEPLEAKIEVGALSTLENEIQKAGLQPKEINFLTIEGKLDAADFKLIRDYMPNLVAVDIEKTNATAIPDFTFSQKKYLLRIRLPHGLKSIGQRAFSNCGRLCGTVELPESITAIEYGAFMGCDRLRYVVAHGDKITTIGDNLFGEGKNKLIYKREGHHHHHH	soluble
MSLQFEGDTITYVGTGRPASDEIIDATGKVVMPGFINTHAHVGMSASKGLFDDVDLERFLDMTFKYDSQRTEEGIFNSARLGMYEMINSGITSFVDLYYSENVIARAAEQVGIRAFLSWVTLDREFTTQKGDPLDNAENFIRSHQNMRFVKPSVGVQGIYVASDETYQRAKEIAERYDTIMHMHLSETRKEVYDSVKKIGERPIEHLDKIGVLSSRVIAAHCVWATYHEAKLLGKNGVNVSWNAVSNFKLATGGVPPVPEMLDAGVNITIGTDSNGSNNSLNFFEAMKFSALTVKNARWDASIIKSQQILDFATIDAAKALRLNAGSIEVGKKADIVILDARRPELIPTDKNNVVNNIVYSTNPASVDSVIIDGVFRKKGGRLIGFDEGGVASANVFVEGHHHHHH	not soluble
MSLQIKFIDLFSGMSGIRKGFEQACRKQSVACECVFTSEIKPAALEVLKQNYPDEVPYGDITKIETGDIPDFDILLAGFPCQAFSFAGKRLGFEDTRGTLFFDVARILKAKKPKGFILENVEGLVTHDRKDPTQKIGRTLTVILETLETLGYYVSWKVLNAKDFGIPQNRKRIYLTGSLKSKPDLSFETTLSPKLKNILESGLPTESSPFIKKLLKKFPPSELYGKSVKDKRGGKNNIHSWDIELKGTVTEEEKQLLNMLLKERRKKKWASEIGIDWMDGMPLTKAQISTFYKHPNLQNILDSLTDKGYLVLEHPKQKIGGRRIKDESLPKGYNIVSGKKSFEINKILDPNDVAPTLVAMDMEHLFVVDNGGLRTLTGKEGLRLFGYPDDYSFDIPKKDKYDLLGNTVAVPVIKAVSERLLHTLEGHHHHHH	soluble
MSLQLSNFLELERADTFENVERVQNAVATEQSYLDYIVQDWACWDDTYQFIEDKNPEYIRVDLQNQTLSGINVNVMIFVNNSGKVVYVKSVNTSTAEEAPVPRKLLAMIEDGGLLTEGENDSISGFVLLDEDPMFIACHPILTTKYEGPSRGTLIFGRYFDDALLESFKKVTRSSLLMYRADEEMPQDFQNKIKNFSQNSDNIVVDPLNKNQIAGYFGLKDIKGDIALILRADFPREGHHHHHH	soluble
